Results on 78 sequences are retold here after the supplement of paper PMC10724198.

± gives the standard deviation of the averaged measurements.
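Also: PSI is a weighted mean of sequencing reads over stability bins, variants kept only with over 10 reads, mCherry proximal and sfGFP distal, peptide attached via GGGS linker.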

The data set relates to Saccharomyces cerevisiae. As to the kind of experiment: protein stability index of tFT-peptide fusion (C-terminal peptide) (PSI (0-1 scale)); higher = more stable (slower turnover). The conditions noted are these: genetic background: wild type; temperature: 30 C. As for the experimental part:
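Multiplexed protein stability (MPS) profiling in S. cerevisiae. Random 12-aa peptides (tFT-X12 library) are fused to the C-terminus of a sfGFP-mCherry tandem fluorescent timer, after mCherry and a GGGS linker. Cells are FACS-sorted into 8 mCherry/sfGFP bins and deep-sequenced. The protein stability index (PSI) is the read-weighted bin average, scaled from 0 (unstable) to 1 (stable). Only peptides with >10 reads are reported; cells were grown at 30 °C in SC-His with glucose.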
The sequence GLGVPCDFRVVA came in with a protein stability index of 0.694 ± 0.013. Next, GLGVSLLVGGEA: 0.6572 ± 0.0028; GLQFDPALPLPP: 0.739 ± 0.022. Next, GLRAAGCRAVGG: 0.672 ± 0.025. Under GLRGFCGVIEFF stands 0.721 ± 0.14; under GLRGRRRAAGRV, 0.726 ± 0.06.

The sequence GLRLLVLPDSWS came in with a protein stability index of 0.682 ± 0.056. Under GLSSPLPLALPV stands 0.649 ± 0.023. Under GLSVVFRIPPGS stands 0.735 ± 0.043. In turn, GLVLVGGGGGAV yielded a protein stability index of 0.577 ± 0.051. Under GLVWLGFWCYPL stands 0.55646 ± 6.9e-05; under GLWAEGCGGEVV, 0.653 ± 0.0083. Under GLWSGWGMVGCV stands 0.737 ± 0.047. Under GLYSIAGGSFGE stands 0.721 ± 0.026; under GLYYRGPSKKER, 0.73 ± 0.02. Regarding GMFDCIPPGTIP, the protein stability index was determined as 0.741 ± 0.094. Under GMGESGAGMVGW stands 0.727 ± 0.013. GMGRGRGNANEG displayed a protein stability index of 0.622 ± 0.045.

The sequence GMLCRAGPVRNV yielded a protein stability index of 0.732 ± 0.011.

With GMNCDMCRIRTL, the protein stability index was 0.683 ± 0.0088. The sequence GMSFNVPLWGSI came in with a protein stability index of 0.69 ± 0.086. GMVEVSTKTKRR showed a protein stability index of 0.719 ± 0.0092. Next, GMVSPVRIVSRR: 0.654 ± 0.024; GMWFRIGHCRFA: 0.684 ± 0.058. GMWGGLSPFLGQ: the protein stability index stood at 0.691 ± 0.015. Next, GNDRRKNNICEI: 0.701 ± 0.034; GNLPQIIYSKVQ: 0.609 ± 0.037; GNPRRNLSTSSR: 0.712 ± 0.02. Next, GNRNGEFINTQI: 0.665 ± 0.027. Under GNRYLCIEVTWV stands 0.48 ± 0.055; under GPEYPFRCRRLF, 0.665 ± 0.039; under GPFPPCVVPSSS, 0.643 ± 0.048. For GPFWPGRFGFLC, the protein stability index is 0.616 ± 0.0078. Next, GPGGPGGGWPLQ: 0.687 ± 0.024; GPGSGWWVSCSL: 0.751 ± 0.04; GPKGLLKATSLS: 0.659 ± 0.064.

The sequence GPLVQVTSYSRY registered a protein stability index of 0.691 ± 0.0077. On to GPNRCPGRPVTP, for which the protein stability index is 0.703 ± 0.032.

The sequence GPPFPPLPLPPP gave a protein stability index of 0.658 ± 0.079. Under GPPHSGPIYLFP stands 0.6748 ± 0.0043. Under GPPPPPPPRPPP stands 0.634 ± 0.007; under GPRLSGGLGGVG, 0.637 ± 0.045.

Consider GPRRGRSGSGWM, for which the protein stability index was 0.6499 ± 0.0057. Under GPSKTGRPLSGT stands 0.713 ± 0.026; under GPTPHQPRMDPR, 0.693 ± 0.011. Next, GPTRAIIFERRY: 0.741 ± 0.17; GPVVHSAPRVRL: 0.686 ± 0.069; GPWAGVRAEVKA: 0.6505 ± 0.0047. Next, GQGEGRGKIKKG: 0.782 ± 0.037. Sequence GQPLLVCMSGFW yielded a protein stability index of 0.684 ± 0.01. Next, GQSSYFRRFRVG: 0.6185 ± 0.0031. Next, GRAGQPCEGALP: 0.652 ± 0.021; GRCLGREGVCGL: 0.673 ± 0.018. As for GRCLSGRVVGGG, the protein stability index was determined as 0.7145 ± 0.0014.

In the case of GRCLWGRVGSVM, the protein stability index stood at 0.707 ± 0.018.

Sequence GRCPPPSPPHPL showed a protein stability index of 0.68 ± 0.038. Under GRCRPATLRGPG stands 0.656 ± 0.012; under GREEDLVAPPFN, 0.715 ± 0.054. Under GRFCGGAVSGGM stands 0.634 ± 0.041; under GRFSHRCGGGVW, 0.622 ± 0.046; under GRFVAPDSHPVG, 0.682 ± 0.021. For GRGAGRATQSPP, the protein stability index is 0.597 ± 0.064. Next, GRGCRGKDWWLW: 0.74 ± 0.055; GRGEEKRDGGRR: 0.673 ± 0.059; GRGEKKKGAKKI: 0.728 ± 0.028. GRGERDIGVNQS had a protein stability index of 0.6792 ± 0.0031.

Consider GRGFGVILGGCS, for which the protein stability index was found to be 0.692 ± 0.02. With GRGGEGQGKRRE, the protein stability index came out at 0.668 ± 0.034. Under GRGSAVTGVYGV stands 0.664 ± 0.059; under GRHRGNVWGAVA, 0.701 ± 0.043. Under GRKAEAEASLFS stands 0.643 ± 0.1.

GRKKKRREEKDT: the protein stability index is 0.609 ± 0.027. Under GRKKTSAGGNQE stands 0.702 ± 0.11. GRKLLAGPDGDI displayed a protein stability index of 0.658 ± 0.039. Next, GRLSQWVPNGRA: 0.681 ± 0.076; GRNAGPSLLPAL: 0.684 ± 0.038; GRNDYYTRKISV: 0.728 ± 0.17. Next, GRNMQVTVQNRG: 0.735 ± 0.02.
